Measurements published in publication PMC10456876 (2023).

Target: human telomeric nucleosome core particle (teloNCP) (human, UniProt P68431 1-136; P62805 1-103; P04908 1-130; P06899 1-124)
Assay: EMSA, concentration at 50% bound

B1: wild-type MBP-tagged TRF1core (TRF1-TIN2-TPP1) (complex)
chain 1: MAEDVSSAAPSPRGCADGRDADPTEEQMAETERNDEEQFECQELLECQVQVGAPEEEEEEEEDAGLVAEAEAVAAGWMLDFLCLSLCRAFRDGRSEDFRRTRNSAEAIIHGLSSLTACQLRTIYICQFLTRIAAGKTLDAQFENDERITPLESALMIWGSIEKEHDKLHEEIQNLIKIQAIAVCMENGNFKEAEEVFERIFGDPNSHMPFKSKLLMIISQKDTFHSFFQHFSYNHMMEKIKSYVNYVLSEKSSTFLMKAAAKVVESKRTRTITSQDKPSGNDVEMETEANLDTRKSVSDKQSAVTESSEGTVSLLRSHKNLFLSKLQHGTQQQDLNKKERRVGTPQSTKKKKESRRATESRIPVSKSQPVTPEKHRARKRQAWLWEEDKNLRSGVRKYGEGNWSKILLHYKFNNRTSVMLKDRWRTMKKLKLISSDSED
chain 2: MATPLVAGPAALRFAAAASWQVVRGRCVEHFPRVLEFLRSLRAVAPGLVRYRHHERLCMGLKAKVVVELILQGRPWAQVLKALNHHFPESGPIVRDPKATKQDLRKILEAQETFYQQVKQLSEAPVDLASKLQELEQEYGEPFLAAMEKLLFEYLCQLEKALPTPQAQQLQDVLSWMQPGVSITSSLAWRQYGVDMGWLLPECSVTDSVNLAEPMEQNPPQQQRLALHNPLPKAKPGTHLPQGPSSRTHPEPLAGRHFNLAPLGRRRVQSQWASTRGGHKERPTVMLFPFRNLGSPTQVISKPESKEEHAIYTADLAMGTRAASTGKSKSPCQTLGGRALKENPVDLPATEQKENCLDCYMDPLRLSLLPPRARKPVCPPSLCSSVITIGDLVLDSDEEENGQGEGKESLENYQKTKFDTLIPTLCEYLPPSGHGAIPVSSCDCRDSSRPL
chain 3: MAGSGRLVLRPWIRELILGSETPSSPRAGQLLEVLQDAEAAVAGPSHAPDTSDVGATLLVSDGTHSVRCLVTREALDTSDWEEKEFGFRGTEGRLLLLQDCGVHVQVAEGGAPAEFYLQVDRFSLLPTEQPRLRVPGCNQDLDVQKKLYDCLEEHLSESTSSNAGLSLSQLLDEMREDQEHQGALVCLAESCLTLEGPCTAPPVTHWAASRCKATGEAVYTVPSSMLCISENDQLILSSLGPCQRTQGPELPPPDPALQDLSLTLIASPPSSPSSSGTPALPGHMSSEESGTSISLLPALSLAAPDPGQRSSSQPSPAICSAPATLTPRSPHASRTPSSPLQSCTPSLSPRSHVPSPHQALVTRPQKPSLEFKEFVGLPCKNRPPFPRTGATRGAQEPCSVWEPPKRHRDGSAFQYEYEPPCTSLCARVQAVRLPPQLMAWALHFLMDAQPGSEPTPM
modifications: phosphoserine at 434, 435 and 437 (reported for the purified TRF1core sample from Sf9)
EC50: 37 nM
